Measured values published in PMC12528385 (Nature Communications, 2025).
Values belong to the binder of their own block, whether it stands above or below them.

Biological target: human insulin receptor, B isoform (exon 11+), wild type (human, UniProt P06213)
Assay: flow cytometry on cells

- binding result: binds
B1: monoclonal antibody 83-7 against the human insulin receptor (antibody, V domains shown)
VH: QVQLKESGPGLVAPSQSLSITCTVSGFPLTAYGVNWVRQPPGKGLEWLGMIWGDGNTDYNSALKSRLSISKDNSKSQVFLKMNSLQTDDTARYYCARDPYGSKPMDYWGQGTSVTVSS
VL: DIVMSQSPSSLVVSVGEKVTMSCKSSQSLLYSSNQKNFLAWYQQKPGQSPKLLIYWASTRESGVPDRFTGSGSGTDFTLTISSVKAEDLAVYYCQQYFRYRTFGGGTKLEIK

- binding result: binds
B2: monoclonal antibody 83-14 against the human insulin receptor (antibody, V domains shown)
VH: QVQLQQSGPELVKPGALVKISCKASGYTFTNYDIHWVKQRPGQGLEWIGWIYPGDGSTKYNEKFKGKATLTADKSSSTAYMHLSSLTSEKSAVYFCAREWAYWGQGTLVTVSA
VL: DIQMTQSPSSLSASLGERVSLTCRASQDIGGNLYWLQQGPDGTIKRLIYATSSLDSGVPKRFSGSRSGSDYSLTISSLESEDFVDYYCLQYSSSPWTFGGGTKLEIK
